*1 amine or outer side, *2 acyl side, *3 side chain or, on linkers, in order; H or OH if unused. Side-chain parts run from the residue outwards. The star is where a group is joined. C18 diacid = O=C(O)CCCCCCCCCCCCCCCCC(=O)*; γGlu = O=C(O)[C@H](CCC(=O)[*:2])N[*:1]; Isovaleryl = CC(C)CC(=O)*; Ahx = NCCCCCC(=O)O
T1: human NPY2 receptor (human, UniProt P49146 1-381)
T1 construct: whole, on cells; also called hNPY2-R; hNPY2R
T1 sequence (looked up): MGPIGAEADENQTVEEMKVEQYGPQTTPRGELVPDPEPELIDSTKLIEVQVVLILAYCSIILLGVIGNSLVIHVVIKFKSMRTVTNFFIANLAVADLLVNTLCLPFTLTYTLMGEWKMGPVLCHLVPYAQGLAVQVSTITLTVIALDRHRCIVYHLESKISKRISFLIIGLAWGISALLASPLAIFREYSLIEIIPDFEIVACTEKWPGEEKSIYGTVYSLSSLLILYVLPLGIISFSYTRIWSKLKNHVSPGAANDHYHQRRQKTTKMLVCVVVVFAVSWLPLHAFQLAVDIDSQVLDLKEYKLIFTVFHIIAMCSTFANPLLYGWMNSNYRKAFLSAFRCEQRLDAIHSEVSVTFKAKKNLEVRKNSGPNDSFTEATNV

T2: human NPY5 receptor (human, UniProt Q15761 1-445)
T2 sequence (looked up): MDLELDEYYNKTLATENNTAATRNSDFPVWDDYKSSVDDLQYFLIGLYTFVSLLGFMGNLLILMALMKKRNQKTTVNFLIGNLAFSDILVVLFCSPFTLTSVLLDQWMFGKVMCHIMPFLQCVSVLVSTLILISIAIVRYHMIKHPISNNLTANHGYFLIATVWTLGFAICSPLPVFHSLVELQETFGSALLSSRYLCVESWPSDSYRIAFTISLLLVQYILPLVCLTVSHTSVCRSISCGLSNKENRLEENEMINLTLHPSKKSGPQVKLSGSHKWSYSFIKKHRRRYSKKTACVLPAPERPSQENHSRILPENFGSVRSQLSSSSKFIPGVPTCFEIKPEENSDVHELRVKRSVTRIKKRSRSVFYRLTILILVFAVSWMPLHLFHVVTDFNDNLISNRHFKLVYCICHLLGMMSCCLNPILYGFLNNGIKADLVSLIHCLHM


Legend:
human NPY2 receptor [1] = molecular target: T1, human NPY2 receptor; test: RLB: displacement of 125I-PYY(1-36) from hNPY2R membranes
human NPY2 receptor [2] = molecular target: T1, human NPY2 receptor; test: cell-based or functional assay
human NPY5 receptor = molecular target: T2, human NPY5 receptor; test: cell-based or functional assay

Ki (human NPY2 receptor [1]) | EC50, HTRF cAMP Gi assay (human NPY2 receptor [2]) | EC50, HTRF cAMP Gi assay (human NPY5 receptor) | Binder
2.39 nM | 0.176 nM | > 5000 nM | Isovaleryl-APEK([Ahx-γGlu-C18 diacid])PEEDASPEEIQRYYVELRHYYNWLTRQRY-NH2 (SMILES CC[C@H](C)[C@H](NC(=O)[C@H](CCC(=O)O)NC(=O)[C@H](CCC(=O)O)NC(=O)[C@@H]1CCCN1C(=O)[C@H](CO)NC(=O)[C@H](C)NC(=O)[C@H](CC(=O)O)NC(=O)[C@H](CCC(=O)O)NC(=O)[C@H](CCC(=O)O)NC(=O)[C@@H]1CCCN1C(=O)[C@H](CCCCNC(=O)CCCCCNC(=O)CC[C@H](NC(=O)CCCCCCCCCCCCCCCCC(=O)O)C(=O)O)NC(=O)[C@H](CCC(=O)O)NC(=O)[C@@H]1CCCN1C(=O)[C@H](C)NC(=O)CC(C)C)C(=O)N[C@@H](CCC(N)=O)C(=O)N[C@@H](CCCNC(=N)N)C(=O)N[C@@H](Cc1ccc(O)cc1)C(=O)N[C@@H](Cc1ccc(O)cc1)C(=O)N[C@H](C(=O)N[C@@H](CCC(=O)O)C(=O)N[C@@H](CC(C)C)C(=O)N[C@@H](CCCNC(=N)N)C(=O)N[C@@H](Cc1c[nH]cn1)C(=O)N[C@@H](Cc1ccc(O)cc1)C(=O)N[C@@H](Cc1ccc(O)cc1)C(=O)N[C@@H](CC(N)=O)C(=O)N[C@@H](Cc1c[nH]c2ccccc12)C(=O)N[C@@H](CC(C)C)C(=O)N[C@H](C(=O)N[C@@H](CCCNC(=N)N)C(=O)N[C@@H](CCC(N)=O)C(=O)N[C@@H](CCCNC(=N)N)C(=O)N[C@@H](Cc1ccc(O)cc1)C(N)=O)[C@@H](C)O)C(C)C) [Compound 52]
2.68 nM | 0.172 nM | > 5000 nM | Isovaleryl-APEK([Ahx-γGlu-C18 diacid])PEEDASPEELQRYYISLRHYYNWLTRQRY-NH2 (SMILES CC[C@H](C)[C@H](NC(=O)[C@H](Cc1ccc(O)cc1)NC(=O)[C@H](Cc1ccc(O)cc1)NC(=O)[C@H](CCCNC(=N)N)NC(=O)[C@H](CCC(N)=O)NC(=O)[C@H](CC(C)C)NC(=O)[C@H](CCC(=O)O)NC(=O)[C@H](CCC(=O)O)NC(=O)[C@@H]1CCCN1C(=O)[C@H](CO)NC(=O)[C@H](C)NC(=O)[C@H](CC(=O)O)NC(=O)[C@H](CCC(=O)O)NC(=O)[C@H](CCC(=O)O)NC(=O)[C@@H]1CCCN1C(=O)[C@H](CCCCNC(=O)CCCCCNC(=O)CC[C@H](NC(=O)CCCCCCCCCCCCCCCCC(=O)O)C(=O)O)NC(=O)[C@H](CCC(=O)O)NC(=O)[C@@H]1CCCN1C(=O)[C@H](C)NC(=O)CC(C)C)C(=O)N[C@@H](CO)C(=O)N[C@@H](CC(C)C)C(=O)N[C@@H](CCCNC(=N)N)C(=O)N[C@@H](Cc1c[nH]cn1)C(=O)N[C@@H](Cc1ccc(O)cc1)C(=O)N[C@@H](Cc1ccc(O)cc1)C(=O)N[C@@H](CC(N)=O)C(=O)N[C@@H](Cc1c[nH]c2ccccc12)C(=O)N[C@@H](CC(C)C)C(=O)N[C@H](C(=O)N[C@@H](CCCNC(=N)N)C(=O)N[C@@H](CCC(N)=O)C(=O)N[C@@H](CCCNC(=N)N)C(=O)N[C@@H](Cc1ccc(O)cc1)C(N)=O)[C@@H](C)O) [Compound 76]
4.64 nM | 0.219 nM | 5000 nM | Isovaleryl-APEK([Ahx-γGlu-C18 diacid])PEEDAEPEELQRYYTSLRHYYHWLTRQRY-NH2 (SMILES CC(C)CC(=O)N[C@@H](C)C(=O)N1CCC[C@H]1C(=O)N[C@@H](CCC(=O)O)C(=O)N[C@@H](CCCCNC(=O)CCCCCNC(=O)CC[C@H](NC(=O)CCCCCCCCCCCCCCCCC(=O)O)C(=O)O)C(=O)N1CCC[C@H]1C(=O)N[C@@H](CCC(=O)O)C(=O)N[C@@H](CCC(=O)O)C(=O)N[C@@H](CC(=O)O)C(=O)N[C@@H](C)C(=O)N[C@@H](CCC(=O)O)C(=O)N1CCC[C@H]1C(=O)N[C@@H](CCC(=O)O)C(=O)N[C@@H](CCC(=O)O)C(=O)N[C@@H](CC(C)C)C(=O)N[C@@H](CCC(N)=O)C(=O)N[C@@H](CCCNC(=N)N)C(=O)N[C@@H](Cc1ccc(O)cc1)C(=O)N[C@@H](Cc1ccc(O)cc1)C(=O)N[C@H](C(=O)N[C@@H](CO)C(=O)N[C@@H](CC(C)C)C(=O)N[C@@H](CCCNC(=N)N)C(=O)N[C@@H](Cc1c[nH]cn1)C(=O)N[C@@H](Cc1ccc(O)cc1)C(=O)N[C@@H](Cc1ccc(O)cc1)C(=O)N[C@@H](Cc1c[nH]cn1)C(=O)N[C@@H](Cc1c[nH]c2ccccc12)C(=O)N[C@@H](CC(C)C)C(=O)N[C@H](C(=O)N[C@@H](CCCNC(=N)N)C(=O)N[C@@H](CCC(N)=O)C(=O)N[C@@H](CCCNC(=N)N)C(=O)N[C@@H](Cc1ccc(O)cc1)C(N)=O)[C@@H](C)O)[C@@H](C)O) [Compound 91]
2.79 nM | 0.197 nM | > 5000 nM | Isovaleryl-APEK([Ahx-γGlu-C18 diacid])PEADAEPEELQRYYVSLRHYYNWLTRQRY-NH2 (SMILES CC(C)CC(=O)N[C@@H](C)C(=O)N1CCC[C@H]1C(=O)N[C@@H](CCC(=O)O)C(=O)N[C@@H](CCCCNC(=O)CCCCCNC(=O)CC[C@H](NC(=O)CCCCCCCCCCCCCCCCC(=O)O)C(=O)O)C(=O)N1CCC[C@H]1C(=O)N[C@@H](CCC(=O)O)C(=O)N[C@@H](C)C(=O)N[C@@H](CC(=O)O)C(=O)N[C@@H](C)C(=O)N[C@@H](CCC(=O)O)C(=O)N1CCC[C@H]1C(=O)N[C@@H](CCC(=O)O)C(=O)N[C@@H](CCC(=O)O)C(=O)N[C@@H](CC(C)C)C(=O)N[C@@H](CCC(N)=O)C(=O)N[C@@H](CCCNC(=N)N)C(=O)N[C@@H](Cc1ccc(O)cc1)C(=O)N[C@@H](Cc1ccc(O)cc1)C(=O)N[C@H](C(=O)N[C@@H](CO)C(=O)N[C@@H](CC(C)C)C(=O)N[C@@H](CCCNC(=N)N)C(=O)N[C@@H](Cc1c[nH]cn1)C(=O)N[C@@H](Cc1ccc(O)cc1)C(=O)N[C@@H](Cc1ccc(O)cc1)C(=O)N[C@@H](CC(N)=O)C(=O)N[C@@H](Cc1c[nH]c2ccccc12)C(=O)N[C@@H](CC(C)C)C(=O)N[C@H](C(=O)N[C@@H](CCCNC(=N)N)C(=O)N[C@@H](CCC(N)=O)C(=O)N[C@@H](CCCNC(=N)N)C(=O)N[C@@H](Cc1ccc(O)cc1)C(N)=O)[C@@H](C)O)C(C)C) [Compound 72]
1.54 nM | 0.076 nM | > 5000 nM | Isovaleryl-APEK([Ahx-γGlu-C18 diacid])PEEDASPEELQRYYVSLRHYYNWLTRQRY-NH2 (SMILES CC(C)CC(=O)N[C@@H](C)C(=O)N1CCC[C@H]1C(=O)N[C@@H](CCC(=O)O)C(=O)N[C@@H](CCCCNC(=O)CCCCCNC(=O)CC[C@H](NC(=O)CCCCCCCCCCCCCCCCC(=O)O)C(=O)O)C(=O)N1CCC[C@H]1C(=O)N[C@@H](CCC(=O)O)C(=O)N[C@@H](CCC(=O)O)C(=O)N[C@@H](CC(=O)O)C(=O)N[C@@H](C)C(=O)N[C@@H](CO)C(=O)N1CCC[C@H]1C(=O)N[C@@H](CCC(=O)O)C(=O)N[C@@H](CCC(=O)O)C(=O)N[C@@H](CC(C)C)C(=O)N[C@@H](CCC(N)=O)C(=O)N[C@@H](CCCNC(=N)N)C(=O)N[C@@H](Cc1ccc(O)cc1)C(=O)N[C@@H](Cc1ccc(O)cc1)C(=O)N[C@H](C(=O)N[C@@H](CO)C(=O)N[C@@H](CC(C)C)C(=O)N[C@@H](CCCNC(=N)N)C(=O)N[C@@H](Cc1c[nH]cn1)C(=O)N[C@@H](Cc1ccc(O)cc1)C(=O)N[C@@H](Cc1ccc(O)cc1)C(=O)N[C@@H](CC(N)=O)C(=O)N[C@@H](Cc1c[nH]c2ccccc12)C(=O)N[C@@H](CC(C)C)C(=O)N[C@H](C(=O)N[C@@H](CCCNC(=N)N)C(=O)N[C@@H](CCC(N)=O)C(=O)N[C@@H](CCCNC(=N)N)C(=O)N[C@@H](Cc1ccc(O)cc1)C(N)=O)[C@@H](C)O)C(C)C) [Compound 79]

Reference: patent US20260015399A1 (Boehringer Ingelheim, published 2026)
